Experimental data taken from patent US20220251198A1 (Eli Lilly, published 2022).

Experiments:
[1] = target: T1, human CD200R expressed on cells (human, UniProt Q8TD46 25-348); assay: cell-based or functional assay
T1 chain: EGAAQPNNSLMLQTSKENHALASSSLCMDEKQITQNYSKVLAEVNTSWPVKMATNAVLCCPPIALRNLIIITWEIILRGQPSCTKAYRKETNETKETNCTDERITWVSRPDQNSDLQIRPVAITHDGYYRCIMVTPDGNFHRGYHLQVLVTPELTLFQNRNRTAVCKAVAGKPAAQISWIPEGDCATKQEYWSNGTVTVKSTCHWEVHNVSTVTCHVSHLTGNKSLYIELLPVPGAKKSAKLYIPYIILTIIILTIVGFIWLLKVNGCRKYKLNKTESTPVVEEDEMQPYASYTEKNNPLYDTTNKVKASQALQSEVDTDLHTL

[2] = target: T2, cynomolgus monkey CD200R (purified soluble receptor, SPR analyte) (cynomolgus monkey, UniProt Q8TD46 25-265 (human entry)); assay: SPR at 37 C, antibody captured on Protein A, receptor analyte, 1:1 model; n=3
T2 construct: Purified by IMAC and size exclusion chromatography; also called cyno CD200R
T2 chain: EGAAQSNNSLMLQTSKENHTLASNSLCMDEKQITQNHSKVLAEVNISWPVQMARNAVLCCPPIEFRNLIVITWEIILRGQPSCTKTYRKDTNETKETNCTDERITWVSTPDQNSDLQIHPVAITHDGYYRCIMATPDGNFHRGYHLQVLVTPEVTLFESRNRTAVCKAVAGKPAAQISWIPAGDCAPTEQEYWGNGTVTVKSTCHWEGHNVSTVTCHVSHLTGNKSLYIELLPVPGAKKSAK

[3] = target: T3, human CD200R (purified soluble receptor, SPR analyte) (human, UniProt Q8TD46 29-265, limits assumed); assay: as above
T3 construct: Purified by IMAC and size exclusion chromatography; also called hCD200R; human CD200 receptor
T3 chain: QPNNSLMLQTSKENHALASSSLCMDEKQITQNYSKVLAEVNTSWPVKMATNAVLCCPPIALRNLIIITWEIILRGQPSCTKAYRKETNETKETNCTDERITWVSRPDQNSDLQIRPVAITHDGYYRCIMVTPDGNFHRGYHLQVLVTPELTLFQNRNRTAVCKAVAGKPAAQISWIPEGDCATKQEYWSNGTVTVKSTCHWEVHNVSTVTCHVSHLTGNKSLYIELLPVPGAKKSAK

[4] = target: T4, human FcγRI extracellular domain (human, UniProt P12314 16-292); assay: SPR at 25 C, antibody captured on Protein A, FcγR ECD analyte
T4 construct: extracellular domain; also called CD64
Method: (§1) Biacore® T100 instrument and Biacore® 3000 (GE Healthcare, Piscataway, NJ), Biacore® reagents and Scrubber2 Biacore® Evaluation Software (Biologics 2008) are used for the SPR analysis of antibody binding. A CM5 chip (Biacore® P/N BR-1006-68) is prepared using the manufacturer's EDC/NHS amine coupling method (Biacore® P/N BR-1000-50). Briefly, the surfaces of all 4 FCs are activated by injecting a 1:1 mixture of EDC/NHS for 7 minutes at 10 μL/minute. Protein A (Calbiochem P/N 539202) is diluted to 100 μg/mL in 10 mM acetate, pH 4.5 buffer and immobilized for approximately 400 RU onto all 4 flow cells by 7 minute injection at a flow rate of 10 μL/minute. Un-reacted sites are blocked with a 7-minute injection of ethanolamine at 10 μL/minute. Injections of 2×10 μL of glycine pH 1.5 are used to remove any non-covalently associated protein.
Reference-subtracted data is collected as FC2-FC1, FC3-FC1, and FC4-FC1. The measurements are obtained at 25° C. The affinity (KD) is calculated using either steady state equilibrium analysis with the Scrubber 2 Biacore® Evaluation Software or a “1:1 (Langmuir) binding” model in BIA Evaluation.

[5] = target: T5, human FcγRIIIA_158V extracellular domain (human, UniProt P08637 17-208); assay: SPR at 25 C, antibody captured on Protein A, FcγR ECD analyte, steady state
T5 construct: extracellular domain; Allotype with Val at 158 (numbering as in the label); also called CD16a
Method: as §1
(§2) For FcγRIIa, FcγRIIb, and FcγRIIIa binding, antibodies are diluted to […] in running buffer, and approximately 500 RU of each variant is captured in flow cells 2 through 4 (RUcaptured). FC1 is the reference flow cell. Fcγ receptor ECDs are diluted to 10 μM in running buffer and then 2 fold serially diluted in running buffer to 39 nM. Duplicate injections of each concentration are injected over all FCs at 40 μL/minute for 60 seconds followed by a 120 second dissociation phase. Regeneration is performed by injecting 15 μL of 10 mM glycine pH 1.5 at 30 μL/min over all FCs.
(§3) Reference-subtracted data is collected as FC2-FC1, FC3-FC1, and FC4-FC1. The measurements are obtained at 25° C. The affinity (KD) is calculated using the steady state equilibrium analysis with the Scrubber 2 Biacore® Evaluation Software.

[6] = target: T6, human FcγRIIb extracellular domain (human, UniProt P31994 43-217); assay: as above
T6 construct: extracellular domain; also called CD32b
T6 sequence (looked up): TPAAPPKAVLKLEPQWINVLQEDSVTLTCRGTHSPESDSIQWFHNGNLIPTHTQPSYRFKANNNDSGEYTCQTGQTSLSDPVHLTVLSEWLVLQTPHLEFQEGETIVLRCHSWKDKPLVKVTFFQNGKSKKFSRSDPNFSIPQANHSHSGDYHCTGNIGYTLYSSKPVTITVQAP
Method: as §1, §2, §3

[7] = target: T7, human FcγRIIA_131H extracellular domain (human, UniProt P12318 34-217); assay: as above
T7 construct: extracellular domain; also called CD32a
T7 sequence (looked up): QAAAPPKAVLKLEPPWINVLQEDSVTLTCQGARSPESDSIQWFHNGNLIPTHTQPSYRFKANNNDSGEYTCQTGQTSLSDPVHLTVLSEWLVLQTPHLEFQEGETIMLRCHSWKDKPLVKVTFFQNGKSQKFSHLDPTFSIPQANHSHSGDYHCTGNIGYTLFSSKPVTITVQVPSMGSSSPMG
Method: as §1, §2, §3

[8] = target: T8, human FcγRIIA_131R extracellular domain (human, UniProt P12318 34-217); assay: as above
T8 construct: extracellular domain; also called CD32a
T8 sequence (looked up): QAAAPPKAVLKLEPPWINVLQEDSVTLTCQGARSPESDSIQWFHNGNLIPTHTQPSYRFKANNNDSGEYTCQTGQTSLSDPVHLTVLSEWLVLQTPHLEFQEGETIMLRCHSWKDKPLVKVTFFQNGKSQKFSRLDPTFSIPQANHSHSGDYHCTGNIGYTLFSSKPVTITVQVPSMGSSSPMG
Method: as §1, §2, §3

[9] = target: T9, human FcγRIIIA_158F extracellular domain (human, UniProt P08637 17-208); assay: as above
T9 construct: extracellular domain; Allotype with Phe at 158 (numbering as in the label); also called CD16a
Method: as §1, §2, §3

T5 sequence (P08637 17-208 F176V): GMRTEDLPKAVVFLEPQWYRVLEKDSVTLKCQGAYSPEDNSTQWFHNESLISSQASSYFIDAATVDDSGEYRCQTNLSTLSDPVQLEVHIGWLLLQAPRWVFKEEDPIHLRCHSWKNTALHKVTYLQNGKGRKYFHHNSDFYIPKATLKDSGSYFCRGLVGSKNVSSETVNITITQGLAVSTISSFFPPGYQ
T4 sequence (P12314 16-292): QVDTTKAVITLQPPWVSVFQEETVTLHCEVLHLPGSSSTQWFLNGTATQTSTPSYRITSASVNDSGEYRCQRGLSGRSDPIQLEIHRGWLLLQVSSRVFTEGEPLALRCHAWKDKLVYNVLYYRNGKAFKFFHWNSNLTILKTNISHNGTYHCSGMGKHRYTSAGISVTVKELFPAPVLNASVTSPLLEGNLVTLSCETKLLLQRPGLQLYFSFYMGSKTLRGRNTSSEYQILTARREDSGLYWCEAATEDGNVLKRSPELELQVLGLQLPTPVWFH
T9 sequence (P08637 17-208): as the sequence (P08637 17-208 F176V) above, with V160F counted along it

Row | Binder | IC50 of inhibition of IC-stimulated IL-8 release, human CD200R-expressing U937 cells [1] [µg/mL] | IC50 of inhibition of immune-complex induced IL-8 secretion, U937 cells expressing human CD200R (average of 3 experiments) [1] [µg/mL] | Kd [2] [nM] | Kd [3] [nM] | Kd [4] [nM] | Kd [5] [nM] | Kd [6] [nM] | Kd [7] [nM] | Kd [8] [nM] | Kd [9] [nM]
1 | Antibody I-4P (antibody, human IgG4 S228P, kappa, Xaa at position 1 is either glutamine or pyroglutamic acid; Xaa at position 446 is either glycine or absent, Humanized IgG4P (S228P), kappa; also called IgG4SP; Antibody I-4P-AF647 (AF647-labelled form used as stain)) heavy: not shown light: EIVLTQSPDFQSVTPKEKVTITCQASESIDSYLLWYQQKPDQSPKLLIKQASTLASGVPSRFSGSGSGTDFTLTINSLEAEDAATYYCQNYYDISSNDFGGGTKVEIKRTVAAPSVFIFPPSDEQLKSGTASVVCLLNNFYPREAKVQWKVDNALQSGNSQESVTEQDSKDSTYSLSSTLTLSKADYEKHKVYACEVTHQGLSSPVTKSFNRGEC | 0.07 | 0.2 | 2.3 | 5.6 | 0.369 | 4300 | 2200 | 3900 | 1700 | 
2 | Antibody I-IgG1 (antibody, Xaa at position 1 is either glutamine or pyroglutamic acid; Xaa at position 450 is either lysine or absent, Same HCVR, LCVR and LC as Antibody I-4P; IgG1 heavy chain) heavy: not shown light: EIVLTQSPDFQSVTPKEKVTITCQASESIDSYLLWYQQKPDQSPKLLIKQASTLASGVPSRFSGSGSGTDFTLTINSLEAEDAATYYCQNYYDISSNDFGGGTKVEIKRTVAAPSVFIFPPSDEQLKSGTASVVCLLNNFYPREAKVQWKVDNALQSGNSQESVTEQDSKDSTYSLSSTLTLSKADYEKHKVYACEVTHQGLSSPVTKSFNRGEC |  |  |  |  | 0.0489 | 200 | 2800 | 500 | 600 | 900
